The target in test [1] is CRT4LP (PASylated CRT-targeted L-ASNase: CRT4 monobody - L-ASNase - PAS200 tag - His6) (E. coli).
Test [2] addresses CRT3LP (PASylated CRT-targeted L-ASNase: CRT3 monobody - L-ASNase - PAS200 tag - His6) (E. coli).

B1: recombinant calreticulin protein (rCRT) (other)
chain: EPAVYFKEQFLDGDGWTSRWIESKHKSDFGKFVLSSGKFYGDEEKDKGLQTSQDARFYALSASFEPFSNKGQTLVVQFTVKHEQNIDCGGGYVKLFPNSLDQTDMHGDSEYNIMFGPDICGPGTKKVHVIFNYKGKNVLINKDIRCKDDEFTHLYTLIVRPDNTYEVKIDNSQVESGSLEDDWDFLPPKKIKDPDASKPEDWDERAKIDDPTDSKPEDWDKPEHIPDPDAKKPEDWDEEMDGEWEPPVIQNPEYKGEWKPRQIDNPDYKGTWIHPEIDNPEYSPDPSIYAYDNFGVLGLDLWQVKSGTIFDNFLITNDEAYAEEFGNETWGVTKAAEKQMKDKQDEEQRLKEEEEDKKRKEEEEAEDKEDDEDKDEDEEDEEDKEEDEEEDVPGQAKDEL
The Kd is the constant that tells how readily two partners part at equilibrium. High values mean a looser complex, low ones a tighter complex. In the case of B1, the Kd in test [1] is 2.3 nM; in test [2], 2.07 nM.

(Values after patent US20250376507A1 (INDUSTRY FOUNDATION OF CHONNAM NATIONAL UNIVERSITY, published 2025).)
